T1: full-length human Nectin4 with C-terminal flag and Myc tags on CHO cells (human, UniProt Q96NY8 32-510)
T1 construct: whole, on cells; also called Nectin4/CHO; CHO/Nectin4; not shown: C-terminal flag and Myc tags of pCMV6-Entry vector
T1 sequence (looked up): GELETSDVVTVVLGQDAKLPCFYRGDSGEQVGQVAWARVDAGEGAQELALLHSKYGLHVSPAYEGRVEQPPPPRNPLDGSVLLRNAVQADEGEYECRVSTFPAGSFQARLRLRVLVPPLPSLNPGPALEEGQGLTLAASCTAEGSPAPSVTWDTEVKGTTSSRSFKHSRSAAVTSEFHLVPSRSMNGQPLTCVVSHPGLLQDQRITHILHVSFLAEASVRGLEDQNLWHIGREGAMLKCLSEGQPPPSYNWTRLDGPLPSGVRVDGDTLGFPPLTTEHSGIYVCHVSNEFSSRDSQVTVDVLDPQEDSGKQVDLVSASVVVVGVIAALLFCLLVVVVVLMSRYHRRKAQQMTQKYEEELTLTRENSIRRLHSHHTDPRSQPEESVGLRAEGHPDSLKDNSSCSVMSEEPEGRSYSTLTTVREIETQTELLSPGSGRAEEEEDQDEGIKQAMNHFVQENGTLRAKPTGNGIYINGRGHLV

T2: human Nectin4-HIS tagged recombinant protein (human, UniProt Q96NY8 32-349)
T2 construct: also called hNectin4-HIS; Nectin4 HIS tagged protein; not shown: HIS tag
T2 sequence (looked up): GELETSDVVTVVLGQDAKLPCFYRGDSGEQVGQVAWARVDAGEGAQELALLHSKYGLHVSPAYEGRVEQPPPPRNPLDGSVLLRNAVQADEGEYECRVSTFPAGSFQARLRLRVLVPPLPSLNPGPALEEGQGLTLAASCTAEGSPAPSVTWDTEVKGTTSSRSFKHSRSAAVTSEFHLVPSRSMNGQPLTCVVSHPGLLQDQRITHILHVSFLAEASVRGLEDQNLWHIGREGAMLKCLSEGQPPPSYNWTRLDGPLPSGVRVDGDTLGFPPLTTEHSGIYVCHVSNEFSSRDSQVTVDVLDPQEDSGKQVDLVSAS

T3: mouse nectin4 protein (mouse, UniProt Q8R007 31-347, limits assumed)
T3 sequence (looked up): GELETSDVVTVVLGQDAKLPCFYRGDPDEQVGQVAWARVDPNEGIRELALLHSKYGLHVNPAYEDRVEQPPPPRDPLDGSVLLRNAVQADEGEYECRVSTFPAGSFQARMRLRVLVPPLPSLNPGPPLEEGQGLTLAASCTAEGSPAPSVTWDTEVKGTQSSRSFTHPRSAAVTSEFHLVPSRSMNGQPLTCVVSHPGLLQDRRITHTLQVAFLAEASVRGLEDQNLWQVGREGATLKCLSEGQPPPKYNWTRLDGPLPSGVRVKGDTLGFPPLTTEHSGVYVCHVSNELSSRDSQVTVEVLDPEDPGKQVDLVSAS


Tests used:
CD3 on Jurkat cells [1] = biological target: T4, CD3 on Jurkat cells (UniProt P07766 23-207, limits assumed); assay: cell-based or functional assay
CD3 on Jurkat cells [2] = biological target: T4, CD3 on Jurkat cells; assay: flow cytometry on Jurkat cells
Description: Jurkat cells were plated at 100,000 cells/well in a 96-well plate with 50 μL of full media. Anti-Nectin4/CD3 antibodies were 3-fold serial titrated from 20 nM. 50 μL was added to the cells and incubated for 1 hours at room temperature with shaking. Samples were washed one time with flow buffer. […] Samples were washed once with flow buffer. Samples were stained with 100 uL Zombie Fixable Viability Dyes at 1:800 dilution per well and incubated in dark at room temperature for 30 mins. Samples were spun down at 1300 rpm for 5 minutes and washed once with 200 uL flow buffer. Reconstituted samples in 200 uL of flow buffer and read on Attune NxT cytometer. EC50 values for CD3 binding were calculated using Prism 8.1 software.

[3] = biological target: T1, full-length human Nectin4 with …; assay: flow cytometry on CHO/Nectin4 cells
Description: Nectin4/CHO Nectin4 cells were plated at 100,000 cells/well in a 96-well plate in 50 μL of full media. Cells were rested 1 hour at 37° C. Anti-Nectin4/CD3 was 3-fold serial titrated from 50 nM. 50 μL was added to the cells and incubated for 1 hours with shaking. Samples were washed one time with flow buffer. […] Samples were washed once with flow buffer. Samples were stained with 100 uL Zombie Fixable Viability Dyes (1:800 dilution) per well and incubated in dark at room temperature for 30 mins. Samples were spun down at 1200 rpm for 5 minutes and washed once with 200 uL flow buffer. Reconstituted samples in 200 uL of flow buffer and read on Attune NxT cytometer. EC₅₀ values for Nectin4 Binding were determined using Prism software.

[4] = biological target: T5, human CD3E HIS tagged protein (human, UniProt P07766 23-126); assay: SPR Biacore T200, bispecific captured on Protein A chip, CD3E-HIS injected
T5 construct: not shown: HIS tag
Description: (§1) The assay was run with Biacore T200 control software version 2.0. For each cycle, 1 ug/mL of anti-hNectin4/CD3 antibody was captured for 60 seconds at flow rate of 10 ul/min on flow cell 2 in 1×HBSP buffer on Protein A sensor chip. 2-fold serial diluted CD3E-HIS or hNectin4-HIS tagged protein was injected onto both reference flow cell 1 and anti-Nectin4/CD3 bispecific captured flow cell 2 for 150 seconds at flow rate of 30 ul/mins followed by wash for 300 seconds. The flow cells were then regenerated with Glycine pH2 for 60 seconds at flow rate of 30 ul/mins. 8 concentration points from 100 nM-0 nM (CD3E-HIS) or 300 nM-0 nM (Nectin4-HIS) was assayed per anti-Nectin4 IgG in a 96 well plate. The kinetics of Anti-Nectin4/CD3 bispecific binding to CD3E and Nectin4 proteins was analyzed with Biacore T200 evaluation software version 3.0. The specific binding response unit was derived from subtraction of binding to reference flow cell 1 from antibody captured flow cell 2. Table 10 below listed the kinetics results. ND means not determined. NA means data not available.

[5] = biological target: T2, human Nectin4-HIS tagged recombinant …; assay: ELISA, coated Nectin4 HIS tagged protein, bispecific titrated, anti-Human HRP
Description: (§2) An ELISA assay was developed to determine the EC₅₀ of anti-Nectin4/CD3 bispecific antibodies. Briefly, 384 well plate was immobilized with human CD3E or Nectin4 HIS tagged protein at final concentration of 2 ug/mL in 1×PBS in total volume of 25 uL per well. The plate was incubated overnight at 4° C. followed by blocking with 80 uL of superblock per well for 1 hour. Purified anti-Nectin4/CD3 was 3-fold serial titrated from 100 nM. 25 uL was added to human Nectin4/CD3 immobilized wells and incubated for 1 hour with shaking. The CD3E or Nectin4 binding was detected by adding 25 uL of anti-Human HRP diluted at 1:10000 in 1×PBST. In between each step, the plate was washed 3 times with […] in a plate washer. The plate was then developed with 20 ul of TMB substrate for 5 mins and stopped by adding 20 ul of 2N sulfuric acid. The plate was read at OD450 nm Biotek plate reader and then plotted in Prism 8.1 software to calculate EC50.

[6] = biological target: T2, human Nectin4-HIS tagged recombinant …; assay: SPR Biacore T200, bispecific captured on Protein A chip, hNectin4-HIS injected
Description: as §1

[7] = biological target: T5, human CD3E HIS tagged protein; assay: ELISA, coated human CD3E HIS tagged protein, bispecific titrated, anti-Human HRP
Description: as §2

[8] = biological target: T1, full-length human Nectin4 with …; assay: cell-based or functional assay
mouse nectin4 protein = biological target: T3, mouse nectin4 protein; assay: ELISA, coated mouse nectin4, IgG titrated, anti-hFc HRP
monkey nectin4 protein = monkey nectin4 protein (monkey); assay: ELISA, coated monkey nectin4, IgG titrated, anti-hFc HRP
[9] = biological target: T2, human Nectin4-HIS tagged recombinant …; assay: ELISA, coated human Nectin4-HIS, IgG titrated, anti-hFc HRP
Description: An ELISA assay was developed to determine the EC₅₀ of exemplary anti-Nectin4 IgG antibodies. Briefly, 384 well plate was immobilized with human Nectin4-HIS tagged recombinant protein at final concentration of 2 ug/mL in 1×PBS in total volume of 25 uL per well. The plate was incubated overnight at 4° C. followed by blocking with 80 uL of superblock per well for 1 hour. Titration of purified anti-Nectin4 IgG starting at 200 nM 2-fold serial dilution, 25 uL was added to human Nectin4 immobilized wells and incubated for 1 hour with shaking. The Nectin4 binding was detected by adding 25 uL of anti-hFc HRP diluted at 1:5000 in 1×PBST. In between each step, the plate was washed 3 times with 1×PBST in a plate washer. The plate was then developed with 20 ul of TMB substrate for 5 mins and stopped by adding 20 ul of 2N sulfuric acid. The plate was read at OD450 nm Biotek plate reader and then plotted in Prism 8.1 software.

[10] = biological target: T2, human Nectin4-HIS tagged recombinant …; assay: ELISA, coated human Nectin4-HIS, antibody titrated, anti-hFc HRP
[11] = biological target: T1, full-length human Nectin4 with …; assay: flow cytometry, IgG on Nectin4/CHO cells, anti-hFc Alexa fluor 647
Description: 200 nM of purified anti-Nectin4 IgG antibodies were diluted in full medium and incubated with Nectin4/CHO and CHO cells in 96 wells plate on ice for 1 hour. Cells were spun down at 1200 rpm for 5 minutes at 4° C. to remove primary antibodies. Cells were then washed once with 200 uL of full medium per well. Samples were detected with anti-hFc Alexa fluor 647 by adding 100 uL of diluted secondary antibody and incubated at 4° C. for 30 minutes in the dark. Samples were spun down at 1200 rpm for 5 minutes at 4° C. and washed twice with 200 uL of 1×PBS per well. Reconstituted samples in 200 uL of 1×PBS and read on Attune NxT cytometer. Analysis was done by Attune NxT software plotting the overlay histogram of […] proteins binding onto both negative and target cell lines.

[12] = biological target: T2, human Nectin4-HIS tagged recombinant …; assay: SPR Biacore T200, IgG captured on Protein A chip, hNectin4-HIS injected
Description: Kinetic analysis of anti-Nectin4 IgG has been assessed by the SPR technology with Biacore T200. The assay was run with Biacore T200 control software version 2.0. For each cycle, 1 ug/mL of anti-hNectin4-IgG was captured for 60 seconds at flow rate of 10 ul/min on flow cell 2 in 1×HBSP buffer on Protein A sensor chip. 2-fold serial hNectin4-HIS tagged protein was injected onto both reference flow cell 1 and anti-Nectin4 IgG captured flow cell 2 for 150 seconds at flow rate of 30 ul/mins followed by wash for 300 seconds. The flow cells were then regenerated with Glycine pH2 for 60 seconds at flow rate of 30 ul/mins. 8 concentration points from 100-0 nM was assayed per anti-Nectin4 IgG in a 96 well plate. The kinetics of Anti-Nectin4 IgG binding to Nectin4 protein was analyzed with Biacore T200 evaluation software version 3.0. The specific binding response unit was derived from subtraction of binding to reference flow cell 1 from antibody captured flow cell 2.

T5 sequence (P07766 23-126 limits assumed): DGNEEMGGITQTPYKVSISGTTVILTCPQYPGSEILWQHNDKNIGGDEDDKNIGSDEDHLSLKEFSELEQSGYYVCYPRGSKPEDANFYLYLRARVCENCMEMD
T4 sequence (P07766 23-207 limits assumed): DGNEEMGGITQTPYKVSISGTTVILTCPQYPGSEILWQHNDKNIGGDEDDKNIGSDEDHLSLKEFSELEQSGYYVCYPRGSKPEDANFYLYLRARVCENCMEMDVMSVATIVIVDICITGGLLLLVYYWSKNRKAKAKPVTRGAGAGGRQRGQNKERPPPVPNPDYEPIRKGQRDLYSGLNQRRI

| NFAT reporter EC50 (CD3 on Jurkat cells [1]) | EC50 (CD3 on Jurkat cells [2]) | EC50 [3] | Kd [4] | koff [4] | kon [4] | EC50 [5] | Kd [6] | koff [6] | kon [6] | EC50 [7] | ADCC Bioreporter assay EC50 [8] | EC50 (mouse nectin4 protein) | EC50 (monkey nectin4 protein) | EC50 [9] | EC50 [10] | EC50 [11] | Kd [12] | Binder |
| --- | --- | --- | --- | --- | --- | --- | --- | --- | --- | --- | --- | --- | --- | --- | --- | --- | --- | --- |
| 0.0038 nM | 0.169 nM | 0.146 nM | 2.23 nM | 0.00059 s⁻¹ | 265000 M⁻¹ s⁻¹ | 0.019 nM | 1.22 nM | 0.00012 s⁻¹ | 98800 M⁻¹ s⁻¹ | 0.005 nM | – | – | – | – | – | – | – | EP369/EP370/EP289 anti-Nectin4/CD3 bispecific antibody (bispecific antibody, Monovalent format: anti-CD3 sp34 scFv-Fc knob (EP369), EP034-B09 heavy chain hole without ADCC (EP370), EP034-B09 light chain (EP289); also called EP369/370/289) not shown heavy: EVQLVQSGAEVKKPGASVKVSCKASGYTFTGYYMHWVRQAPGQGLEWMGRINPNSGGTNYAQKFQGRVTMTRDTSISTAYMELSGLRSDDTAVYFCARVTYNIGWYIDYWGQGTLVTVSSASTKGPSVFPLAPSSKSTSGGTAALGCLVKDYFPEPVTVSWNSGALTSGVHTFPAVLQSSGLYSLSSVVTVPSSSLGTQTYICNVNHKPSNTKVDKKVEPKSCDKTHTCPPCPAPEAAGGPSVFLFPPKPKDTLMISRTPEVTCVVVDVSHEDPEVKFNWYVDGVEVHNAKTKPREEQYNSTYRVVSVLTVLHQDWLNGKEYKCKVSNKALGAPIEKTISKAKGQPREPQVCTLPPSRDELTKNQVSLSCAVKGFYPSDIAVEWESNGQPENNYKTTPPVLDSDGSFKLVSKLTVDKSRWQQGNVFSCSVMHEALHNHYTQKSLSLSPGK light: QAVVTQPPSVSVAPGKTATITCGGNNIGSKGVHWYQQKPGQAPVLVIYYDTDRPSGIPERLSGSNSGNTATLTISRVEAGDEADYYCQVWDSSSDHPVFGGGTKLTVLGQPKANPTVTLFPPSSEELQANKATLVCLISDFYPGAVTVAWKADGSPVKAGVETTKPSKQSNNKYAASSYLSLTPEQWKSHRSYSCQVTHEGSTVEKTVAPTECS |
| – | – | – | – | – | – | – | – | – | – | – | 1.16 nM | 0.017 nM | 0.019 nM | 0.018 nM | 0.061 nM | 0.0062 nM | 1.47 nM | 2020EP034-B09 IgG (EP299/EP289) (antibody, V domains shown, Human IgG1 with lambda light chain; entries without signal peptide used; also called EP034-B09, mAb) VH: EVQLVQSGAEVKKPGASVKVSCKASGYTFTGYYMHWVRQAPGQGLEWMGRINPNSGGTNYAQKFQGRVTMTRDTSISTAYMELSGLRSDDTAVYFCARVTYNIGWYIDYWGQGTLVTVSS VL: QAVVTQPPSVSVAPGKTATITCGGNNIGSKGVHWYQQKPGQAPVLVIYYDTDRPSGIPERLSGSNSGNTATLTISRVEAGDEADYYCQVWDSSSDHPVFGGGTKLTVLG |
| – | – | – | – | – | – | – | – | – | – | – | 1.43 nM | 0.037 nM | 0.043 nM | 0.035 nM | – | 0.017 nM | 11 nM | 2020EP034-E01 IgG (EP296/EP286) (antibody, V domains shown, Human IgG1) VH: not shown VL: DVVMTQSPLSLPVTPGEPASMSCRSSESLLHRNGFNYLDWYVQRPGQSPKLLIYMGSYRASGVPDRFSGRGSGTDFALKISRVEAEDVGVYYCMQALQSPPLYTFGPGTKLEIKR |
